Data taken from article PMC5568246.

Legend:
[1] = target: 70S ribosomes (E. coli JE28, with endogenous L7/L12) (E. coli (endogenous in JE28)) (UniProt P0A7K2); assay: other fluorescence titration
[2] = target: L7/L12-depleted 70S ribosomes (E. coli (endogenous in JE28)) (UniProt P0A7J3); assay: SEC
[3] = target: L7/L12-depleted 70S ribosomes reconstituted with recombinant L12 (E. coli | E. coli (endogenous in JE28)) (UniProt P0A7K2); assay: co-sedimentation
[4] = target: L7/L12-depleted 70S ribosomes (E. coli (endogenous in JE28)) (UniProt P0A7J3); assay: co-sedimentation
[5] = target: recombinant ribosomal protein L12 (E. coli) (UniProt P0A7K2); assay: SEC

Chain of UniProt P0A7J3 (P0A7J3 whole entry, looked up): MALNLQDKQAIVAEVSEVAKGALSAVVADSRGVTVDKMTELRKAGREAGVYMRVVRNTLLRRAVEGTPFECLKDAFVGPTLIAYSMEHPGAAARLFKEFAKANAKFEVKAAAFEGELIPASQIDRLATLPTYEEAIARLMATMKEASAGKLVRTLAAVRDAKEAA

Q: With “EF-G-591 coupled with 5-iodoacetomido fluorescein (from UniProt P0A6M8 1-704) (enzyme)” as the substance, how does the Kd [1] read?
A: 23 nM

Q: With “elongation factor G (from UniProt P0A6M8 1-704) (enzyme)” as the substance, how does the percent co-eluted with the ribosomes [2] read?
A: 20%

Q: How did the percent binding relative to complete 70S [3] turn out when “initiation factor 2 (from UniProt P0A705 1-890) (enzyme)” was run?
A: 100%

Q: How did the percent binding retained [2] turn out when “leader peptidase A (from UniProt P60785 1-599) (enzyme)” was run?
A: > 50%

Q: And the percent binding retained [4]?
A: > 50%

Q: With “recombinant ribosomal protein L12 (from UniProt P0A7K2 1-121) (natural protein)” as the substance, how does the stoichiometry N [5] read?
A: 2

Q: For “release factor 3 (from UniProt P0A7I4 1-529) (enzyme)”, which percent binding relative to complete 70S [3] is on record?
A: 100%
